Values belong to the molecule of their own block, whether it stands above or below them.
How the values were obtained:
[1] = Hydrolysis with CBH enzyme mixtures, spruce; assay type: biochemical; settings: additional enzymes EGII, bG; 48 h, 45° C., pH 5.0
Description: (§1) The performance of the purified recombinant cellobiohydrolases was evaluated in the hydrolysis studies with purified T. reesei enzymes. Hydrolysis was carried out with controlled mixtures of purified enzymes on several pre-treated substrates. […] In addition, pure T. reesei cellulases (purified as described by Suurnäkki et al., 2000) were used in the enzyme mixtures. The cellobiohydrolases used in the experiment were:
(§2) Each CBH/Cel7 to be tested (dosage 14.5 mg/g dry matter of substrate) was used either together with EGII/Cel5A of T. reesei (3.6 mg/g) or with a mixture containing T. reesei EGI/Cel7B (1.8 mg/g), EGII/Cel5A (1.8 mg/g), xylanase pI 9 (Tenkanen et al. 1992) (5000 nkat/g) and acetyl xylan esterase (AXE) (Sundberg and Poutanen, 1991) (250 nkat/g). All mixtures were supplemented with additional β-glucosidase from a commercial enzyme preparation Novozym 188 (176 nkat/g d.w.). Triplicate tubes containing the enzyme mixture and 10 mg (dry matter)/ml of the substrate suspended in 0.05 M sodium acetate were incubated in mixing by magnetic stirring at 45° C. for 48 h. Reference samples with inactivated enzymes and corresponding substrates were also prepared. The release of hydrolysis products was measured as reducing sugars with DNS method using glucose as standard (Table 30).
Washed steam pre-treated spruce fibre (impregnation with 3% w/w SO2 for 20 min, followed by steam pre-treatment at 215° C. for 5 min), dry matter 25.9% (SPRUCE).

[2] = Hydrolysis with CBH enzyme mixtures, Avicel; assay type: biochemical; settings: additional enzymes EGII, bG; 48 h, 45° C., pH 5.0
Description: as §1, §2
Crystalline cellulose (Avicel)

[3] = Hydrolysis with CBH enzyme mixtures, willow; assay type: biochemical; settings: additional enzymes EGII, bG, 48 h, 45° C., pH 5.0
Description: as §1, §2
Washed steam pre-treated willow fibre (pre-treatment for 14 min at 210° C.), dry matter 23.0% (WILLOW).

[4] = Hydrolysis with CBH enzyme mixtures, corn stover; assay type: biochemical; settings: additional enzymes EGII, bG, 48 h, 45° C., pH 5.0
Description: as §1, §2
Washed wet oxidized corn stover fibre (WOCS).

[5] = Hydrolysis with endoglucanase preparations, corn stover; assay type: biochemical; settings: 48 h, 45° C., pH 5.0
Description: (§3) The preparations containing the endoglucanases were compared in hydrolysis studies mixed with the purified CBH/Cel7 and CBH/Cel6 enzymes on several pre-treated substrates. Culture filtrates of T. reesei, containing different cloned endoglucanase enzymes were obtained as described in Example 19. The enzymes were enriched by removing thermolabile proteins from the mixtures by a heat treatment (60° C., 2 h, pH 5) and the supernatant was used for the hydrolysis studies. In addition, pure T. reesei cellulases (purified as described by Suurnäkki et al., 2000) were used in the enzyme mixtures. The endoglucanases used in the experiment were:
Steam exploded corn stover fibre (steam pre-treatment at 210° C. for 5 min), dry matter 31.0% (SECS).
(§4) The endoglucanases to be studied (dosage 840 nkat/g dry matter, based on endoglucanase activity against HEC according to IUPAC, 1987) were used either with cellobiohydrolases of T. reesei (CBHI/Cel7A, 8.1 mg/g d.m. and CBHII/Cel6A, 2.0 mg/g d.m.) or with Thermoascus aurantiacus Cel7A with genetically attached CBD of T. reesei (10.1 mg/g d.m.). Purified (Suurnäkki et al., 2000) EGI (Cel7B) and EGII (Cel5A) of T. reesei were also included in the experiments for comparison. All mixtures were supplemented with additional β-glucosidase from Novozym 188 (to make the total β-glucosidase dosage 560 nkat/g d.w., the relatively high dosage was used to compensate the differences in the background activities of the different EG preparations). Triplicate tubes were incubated in mixing at 45° C. for 48 h and reference samples with inactivated enzymes and corresponding substrates were prepared. The release of hydrolysis products was measured as reducing sugars with DNS method using glucose as standard (Table 31).

[6] = Hydrolysis with endoglucanase preparations, spruce; assay type: biochemical; settings: 48 h, 45° C., pH 5.0
Description: as §3
Washed steam pre-treated spruce fibre (impregnation with 3% SO2 for 20 min, followed by steam pre-treatment at 215° C. for 5 min), dry matter 25.9% (SPRUCE).
as §4

[7] = Isoelectric focusing (PhastSystem), pI of purified protein; assay type: physicochemical; settings: IEF gel
Description: The sample was dissolved in water and applied to a Superdex 75 HR 10/30 gel filtration column equilibrated with 20 mM sodium phosphate pH 6.0, containing 0.15 M NaCl. Fractions were collected and those containing endoglucanase activity were combined. The protein eluate was judged to be pure by SDS-polyacrylamide gel electrophoresis and the molecular mass was evaluated on the basis of molecular mass standards (prestained SDS-PAGE standards, Broad Range, Bio-Rad) to be 54 kDa. The pI of the purified protein, designated as Ct EG—54 was determined with PhastSystem (Pharmacia) to be ca 5.5.
The sample was applied to a Sephacryl S-100 HR 26/60 gel filtration column equilibrated with 50 mM sodium acetate buffer pH 5.0, containing 0.05 M NaCl. The protein fraction containing endoglucanase activity was eluted from the column with a retention volume corresponding to a molecular weight of 16 kDa. Collected fractions were combined, concentrated and gel filtration was repeated. The protein eluate was judged to be pure by SDS-polyacryl amide gel electrophoresis and the molecular weight was evaluated to be 28 kDa. The pI of the purified protein, designated as Ta EG—28, was determined in an IEF gel (PhastSystem, Pharmacia) to be about 3.5. The specific activity of Ta EG—28 at 50° C. was determined to be 4290 nkat/mg (procedure of IUPAC 1987, using CMC as substrate).
The active material from the anion exchange chromatography was applied to a Sephacryl S-300 HR 26/60 column equilibrated with 20 mM sodium phosphate pH 6.5, containing 0.15 M NaCl. The protein with β-glucosidase activity was eluted with a retention volume corresponding to a molecular weight of 243 kDa. The protein was judged to be pure by SDS-polyacrylamide gel electrophoresis and the molecular weight was evaluated to be 101 kDa. The pI of the purified protein, designated as At βG—101, was determined in an IEF gel (PhastSystem, Pharmacia) to be in the area of 5.6-4.9. The specific activity of At βG—101 at 50° C. was determined to be 1100 nkat/mg (using 4-nitrophenyl-β-D-glucopyranoside as substrate, Bailey and Linko, 1990).
The active material from the cation exchange chromatography was applied to a Sephacryl S-300 HR 26/60 column equilibrated with 20 mM sodium phosphate pH 7.0, containing 0.15 M NaCl. The protein with β-glucosidase activity was eluted with a retention volume corresponding to a molecular weight of 294 kDa. […] The protein was judged to be pure by SDS-polyacrylamide gel electrophoresis and the molecular weight was evaluated to be 81 kDa, representing most likely the monomeric form of the protein. […] The specific activity of the purified protein, designated as Ta βG—81, at 50° C. was determined to be 600 nkat/mg using 4-nitrophenyl-β-D-glucopyranoside as substrate (Bailey and Linko, 1990). […]

[8] = with CBHI and CBHII of T. reesei
[9] = with T. aurantiacus Cel7A + Tr CBD

- Hydrolysis products as reducing sugars, SPRUCE [1]: 3.7 mg/mL
- Hydrolysis products as reducing sugars, Avicel [2]: 4.9 mg/mL
- Hydrolysis products as reducing sugars, WILLOW ([3]; EGI, XYL, AXE): 5.6 mg/mL
- Hydrolysis products as reducing sugars, WILLOW [3]: 3.7 mg/mL
- Hydrolysis products as reducing sugars, WOCS ([4]; EGI, XYL, AXE): 7.2 mg/mL
- Hydrolysis products as reducing sugars, WOCS [4]: 4.6 mg/mL
B1: Ta Cel7A + Ct CBD: Thermoascus aurantiacus Cel7A fused to linker and CBD of Chaetomium thermophilum Cel7A, SEQ ID NO: 30 (protein)
chain: MYQRALLFSFFLAAARAQQAGTVTAENHPSLTWQQCSSGGSCTTQNGKVVIDANWRWVHTTSGYTNCYTGNTWDTSICPDDVTCAQNCALDGADYSGTYGVTTSGNALRLNFVTQSSGKNIGSRLYLLQDDTTYQIFKLLGQEFTFDVDVSNLPCGLNGALYFVAMDADGGLSKYPGNKAGAKYGTGYCDSQCPRDLKFINGQANVEGWQPSANDPNAGVGNHGSCCAEMDVWEANSISTAVTPHPCDTPGQTMCQGDDCGGTYSSTRYAGTCDPDGCDFNPYRQGNHSFYGPGQIVDTSSKFTVVTQFITDDGTPSGTLTEIKRFYVQNGKVIPQSESTISGVTGNSITTEYCTAQKAAFGDNTGFFTHGGLQKISQALAQGMVLVMSLWDDHAANMLWLDSTYPTDADPDTPGVARGTCPTTSGVPADVESQYPNSYVIYSNIKVGPIGSTVPGLDGSNPGNPTTTVVPPASTSTSRPTSSTSSPVSTPTGQPGGCTTQKWGQCGGIGYTGCTNCVAGTTCTQLNPWYSQCL

- Hydrolysis products as reducing sugars, SECS [5, 8]: 3.5 mg/mL
- Hydrolysis products as reducing sugars, SPRUCE [6, 8]: 3.8 mg/mL
- Hydrolysis products as reducing sugars, SPRUCE [6, 9]: 3.2 mg/mL
B2: EGII: endoglucanase II (Cel5A) of T. reesei, reference enzyme (protein, UniProt P07982 22-418, looked up)
Endoglucanase EG-II: QQTVWGQCGGIGWSGPTNCAPGSACSTLNPYYAQCIPGATTITTSTRPPSGPTTTTRATSTSSSTPPTSSGVRFAGVNIAGFDFGCTTDGTCVTSKVYPPLKNFTGSNNYPDGIGQMQHFVNEDGMTIFRLPVGWQYLVNNNLGGNLDSTSISKYDQLVQGCLSLGAYCIVDIHNYARWNGGIIGQGGPTNAQFTSLWSQLASKYASQSRVWFGIMNEPHDVNINTWAATVQEVVTAIRNAGATSQFISLPGNDWQSAGAFISDGSAAALSQVTNPDGSTTNLIFDVHKYLDSDNSGTHAECTTNNIDGAFSPLATWLRQNNRQAILTETGGGNVQSCIQDMCQQIQYLNQNSDVYLGYVGWGAGSFDSTYVLTETPTSSGNSWTDTSLVSSCLARK

More lines, now with the values behind:

B3: EGI: endoglucanase I (Cel7B) of T. reesei, reference enzyme (protein, UniProt P07981 23-459, looked up)
Endoglucanase EG-1: QQPGTSTPEVHPKLTTYKCTKSGGCVAQDTSVVLDWNYRWMHDANYNSCTVNGGVNTTLCPDEATCGKNCFIEGVDYAASGVTTSGSSLTMNQYMPSSSGGYSSVSPRLYLLDSDGEYVMLKLNGQELSFDVDLSALPCGENGSLYLSQMDENGGANQYNTAGANYGSGYCDAQCPVQTWRNGTLNTSHQGFCCNEMDILEGNSRANALTPHSCTATACDSAGCGFNPYGSGYKSYYGPGDTVDTSKTFTIITQFNTDNGSPSGNLVSITRKYQQNGVDIPSAQPGGDTISSCPSASAYGGLATMGKALSSGMVLVFSIWNDNSQYMNWLDSGNAGPCSSTEGNPSNILANNPNTHVVFSNIRWGDIGSTTNSTAPPPPPASSTTFSTTRRSSTTSSSPSCTQTHWGQCGGIGYSGCKTCTSGTTCQYSNDYYSQCL
- Hydrolysis products as reducing sugars, SECS [5, 8]: 4.6 mg/mL
- Hydrolysis products as reducing sugars, SECS [5, 9]: 4.2 mg/mL
- Hydrolysis products as reducing sugars, SPRUCE [6, 8]: 3.5 mg/mL

B4: Ct EG_54: endoglucanase of Chaetomium thermophilum ALKO4261, gene Ct cel7B, amino acid SEQ ID NO: 16 (protein)
chain: MTRKFALVPLLLGLASAQKPGNTPEVHPKITTYRCSHRQGCRPETNYIVLDSLTHPVHQLNSNANCGDWGNPPPRSVCPDVETCAQNCIMEGIQDYSTYGVTTSGSSLRLKQIHQGRVTSPRVYLLDKTEQQYEMMRLTGFEFTFDVDTTKLPCGMNAALYLSEMDATGARSRLNPGGAYYGTGYCDAQCFVTPFINGIGNIEGKGSCCNEMDIWEANSRSQSIAPHPCNKQGLYMCSGQECEFDGVCDEWGCTWNPYKVNVTDYYGRGPQFKVDTTRPFTVITQFPADQNGKLTSIHRMYVQDGKLIEAHTVNLPGYPQVNALNDDFCRATGAATKYLELGATAGMGEALRRGMVLAMSIWWDESGFMNWLDSGESGPCNPNEGNPQNIRQIEPEPEVTYSNLRWGEIGSTYKHNLKGGWTGRN
- pI of the purified protein [7]: ~5.5

Source: US8409836B2, “Treatment of cellulosic material and enzymes useful therein” (Roal Oy, priority 2005, dated 2013)
